Reference: paper doi:10.1101/2022.07.27.501708 (bioRxiv, 2022)

Molecular target: SARS-CoV-2 WT RBD (SPR analyte) (SARS-CoV-2, Wuhan-Hu-1, UniProt P0DTC2)
Test: SPR

| Binder | Kd [nM] | kon [M⁻¹ s⁻¹] |
| --- | --- | --- |
| EH3 IgG (antibody, V domains shown) VH: EVQLVESGGGLVQPGGSLRLSCAASGITVSSNYMTWVRQAPGKGLEWVSVIYSGGSTFYADSVRGRFTISRDNSKNTLYLQMNSLRAEDTAVYYCARDLEMAGAFDIWGQGTMVTVSS VL: not shown | 0.83 to 2.79 | 83200 to 274000 |
| EH8 IgG (antibody, V domains shown) VH: QVQLVQSGAEVKKPGASVKVSCKASGYTFSSYGISWVRQAPGQGLEWMGWISPYNGNTKYPQKFQGRVTMTTDTSTNTAYMELRSLRSDDTAVYYCARDLELGGGFDYWGQGTLVTVSS VL: QSALTQPASVSGSPGQSITISCTGTSSDVGSYNLVSWYQQHPDKAPKFMIYEGTKRPSGVSNRFSGSKSGNTASLTISGLQAEDEADYYCCSYAGNSTWVFGGGTKLTVL | 1.3 to 7.22 | 403000 to 837000 |
